Data: PMC10282093, “Structural basis of α1A-adrenergic receptor activation and recognition by an extracellular nanobody” (Nature Communications, 2023)
“And” between values parts separate entries of the source, which are not always exact repeats. Equal values may be shown once.

Experiments:
α1AAR-kOR = target: T1, α1AAR-kOR (Homo sapiens, UniProt P35348, DEL205-275/INS204TLMILRLKSVRLLSGSREKDRNLRRITRLVL/M115W/N13Q/N22Q/N7Q/S113R); experiment: [3H]prazosin radioligand binding, Sf9 membrane; settings: for [3H]prazosin binding: listed as Tam
T1 construct: C-terminus truncated human α1AAR (residues 1–370, full length: 466); hemagglutinin signal peptide (N); FLAG (N); 8×His (C); made in house; host or cells: Sf9 insect cells (membranes)

[1] = target: T2, C-terminus truncated human α1AAR (residues 1-370; N7Q, N13Q, N22Q) (Homo sapiens, UniProt P35348, N7Q | N13Q | N22Q); experiment: radioligand binding; [3H]prazosin competition binding with Nb29 as competitor, purified α1AAR bound to M1-Flag affinity resin; 20 mM HEPES pH 7.5, 100 mM NaCl, 0.01% MNG, 0.001% CHS, 2 mM CaCl2; 1 h at room temperature; settings: both partners purified
T2 construct: α1A-adrenergic receptor, human, residues 1-370 (full length: 466); also called α1A-adrenergic receptor; source: Sf9 insect cells (baculovirus); not shown: FLAG, N-terminal, kept

[2] = target: T2, C-terminus truncated human α1AAR …; experiment: radioligand binding; [3H]prazosin competition binding with Nb29 as competitor, α1AAR in Sf9 membranes; 20 mM Tris-HCl pH 7.5, 100 mM NaCl; 1 h at room temperature; settings: one partner purified
α1AAR = target: T3, α1AAR (Homo sapiens, UniProt P35348, N13Q/N22Q/N7Q); experiment: On-yeast titration of Nb29 for α1AAR, flow cytometry; assay type: binding
T3 construct: C-terminus truncated human α1AAR (residues 1–370, full length: 466); hemagglutinin signal peptide (N); 8×His (C); made in house; host or cells: Sf9 insect cells (baculovirus)
T3 sequence (P35348 1-370 N7Q/N13Q/N22Q): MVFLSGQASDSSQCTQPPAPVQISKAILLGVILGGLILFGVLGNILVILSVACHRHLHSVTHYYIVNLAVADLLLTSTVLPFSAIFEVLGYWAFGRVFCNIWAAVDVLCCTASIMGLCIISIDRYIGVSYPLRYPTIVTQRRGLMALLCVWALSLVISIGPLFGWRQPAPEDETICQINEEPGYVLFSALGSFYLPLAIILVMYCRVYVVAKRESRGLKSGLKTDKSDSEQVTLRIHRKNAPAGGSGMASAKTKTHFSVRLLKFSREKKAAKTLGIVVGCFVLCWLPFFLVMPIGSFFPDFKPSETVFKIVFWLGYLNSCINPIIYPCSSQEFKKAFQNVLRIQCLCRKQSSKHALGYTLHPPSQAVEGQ
Method: Yeast cells were analyzed by Accuri C6 and the ratio of double-positive yeast cells among anti-HA positive cells was calculated.

[3] = 1 h, read-out: [3H]prazosin binding

T1 sequence (P35348 with tags, fused parts or gaps with the stated changes limits assumed): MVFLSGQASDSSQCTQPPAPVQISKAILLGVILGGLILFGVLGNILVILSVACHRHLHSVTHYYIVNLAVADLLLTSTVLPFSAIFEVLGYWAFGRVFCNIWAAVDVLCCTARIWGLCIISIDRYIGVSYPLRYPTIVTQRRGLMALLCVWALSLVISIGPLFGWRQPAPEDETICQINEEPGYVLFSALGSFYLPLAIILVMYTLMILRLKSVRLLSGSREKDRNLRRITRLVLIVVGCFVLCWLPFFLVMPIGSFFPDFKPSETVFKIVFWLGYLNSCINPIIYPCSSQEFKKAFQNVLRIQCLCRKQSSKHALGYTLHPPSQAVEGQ

CCOc1ccccc1OCCN[C@H](C)Cc1ccc(OC)c(S(N)(=O)=O)c1 [Tamsulosin, tamsulosin]
[3H]prazosin binding (α1AAR-kOR; Tam Log[M] -4, + 5 μM Nb6): 0.3% and 1.4% and 0.5% | [3H]prazosin binding (α1AAR-kOR; Tam Log[M] -4): 1.611% and 3.516% and 2.93% | [3H]prazosin binding (α1AAR-kOR; Tam Log[M] -5, + 5 μM Nb6): 2.5% and 2.1% and 1.4% | [3H]prazosin binding (α1AAR-kOR; Tam Log[M] -5): 3.223% and 3.809% and 3.369% | [3H]prazosin binding (α1AAR-kOR; Tam Log[M] -6, + 5 μM Nb6): 3.3% and 4.3% and 2.7% | [3H]prazosin binding (α1AAR-kOR; Tam Log[M] -6): 4.541% and 3.809% and 4.395% | [3H]prazosin binding (α1AAR-kOR; Tam Log[M] -7, + 5 μM Nb6): 48.154% and 49.4541% and 47.454% | [3H]prazosin binding (α1AAR-kOR; Tam Log[M] -7): 39.4775% and 27.2705% and 36.2061% | [3H]prazosin binding (α1AAR-kOR; Tam Log[M] -8, + 5 μM Nb6): 86.9072% and 94.5245% and 104.442% | [3H]prazosin binding (α1AAR-kOR; Tam Log[M] -8): 82.3975% and 81.5186% and 80.0537% | [3H]prazosin binding (α1AAR-kOR; Tam Log[M] -9, + 5 μM Nb6): 108.742% and 93.5245% and 98.1248% | [3H]prazosin binding (α1AAR-kOR; Tam Log[M] -9): 91.626% and 91.1865% | [3H]prazosin binding (α1AAR-kOR; Tam Log[M] -10, + 5 μM Nb6): 97.6581% and 106.126% and 95.8247% | [3H]prazosin binding (α1AAR-kOR; Tam Log[M] -10): 84.8877% and 109.009% and 95.459% | [3H]prazosin binding (α1AAR-kOR; Tam Log[M] -11, + 5 μM Nb6): 98.7416% and 100.042% and 78.5899% | [3H]prazosin binding (α1AAR-kOR; Tam Log[M] -11): 106.152% and 96.4844% and 97.3633%

Cc1cc(C(C)(C)C)c(O)c(C)c1CC1=NCCN1 [Oxymetazoline, oxymetazoline]
remaining activity at 0.001 µM (α1AAR-kOR; [3]): 89.3% | remaining activity at 0.01 µM (α1AAR-kOR; [3]): 83.5% | remaining activity at 1 µM (α1AAR-kOR; [3]): 13.3%

B1: Nb29 (purified nanobody) (VHH)
VHH: QVQLQESGGGLVQAGGSLRLSCAASGNISAHWKMGWYRQAPGKEREFVAGIGYANTNYADSVKGRFTISRDNAKNTVYLQMNSLKPEDTAVYYCAAYSYYRDHSYWGQGTQVTVSS
notes: source: E. coli BL21(DE3), periplasmic (pET26b), purified (Ni-NTA, size-exclusion chromatography)
Ki [1]: 6.4 µM | Ki [2]: 41 µM

B2: Nb29: synthetic nanobody (single domain antibody) that binds the extracellular vestibule of α1AAR, preferentially oxymetazoline-bound (antibody, V domains shown)
VH: QVQLQESGGGLVQAGGSLRLSCAASGNISAHWKMGWYRQAPGKEREFVAGIGYANTNYADSVKGRFTISRDNAKNTVYLQMNSLKPEDTAVYYCAAYSYYRDHSYWGQGTQVTVSS
Nb29-expressing yeast cells bound to α1AAR (α1AAR; 500 μM Noradrenaline, α1AAR 4 nM): 4.281% and 5.07% and 1.08% | Nb29-expressing yeast cells bound to α1AAR (α1AAR; 500 μM Noradrenaline, α1AAR 16 nM): 4.4164% and 6.158% and 1.447% | Nb29-expressing yeast cells bound to α1AAR (α1AAR; 500 μM Noradrenaline, α1AAR 64 nM): 6.534% and 6.061% and 1.603% | Nb29-expressing yeast cells bound to α1AAR (α1AAR; 500 μM Oxymetazoline, α1AAR 64 nM): 56.0554% and 29.8113% and 58.3201% | Nb29-expressing yeast cells bound to α1AAR (α1AAR; 500 μM Oxymetazoline, α1AAR 256 nM): 56.0831% and 53.0792% and 88.1579% | Nb29-expressing yeast cells bound to α1AAR (α1AAR; 500 μM Phentolamine, α1AAR 4 nM): 4.281% and 2.134% and 0.9772% | Nb29-expressing yeast cells bound to α1AAR (α1AAR; 500 μM Phentolamine, α1AAR 16 nM): 4.4164% and 5.525% and 0.626% | Nb29-expressing yeast cells bound to α1AAR (α1AAR; 500 μM Phentolamine, α1AAR 64 nM): 6.534% and 6.745% and 1.138% | Nb29-expressing yeast cells bound to α1AAR (α1AAR; 500 μM Tam, α1AAR 4 nM): 1.7094% and 4.412% and 4.11% | Nb29-expressing yeast cells bound to α1AAR (α1AAR; 500 μM Tam, α1AAR 16 nM): 2.954% and 4.451% and 4.373% | Nb29-expressing yeast cells bound to α1AAR (α1AAR; 500 μM Tam, α1AAR 64 nM): 5.7377% and 5.491% and 6.25% | Nb29-expressing yeast cells bound to α1AAR (α1AAR; 500 μM Tam, α1AAR 256 nM): 3.361% and 11.8841% and 12.7329% | Bmax (α1AAR; Apo α1AAR): 35.8 ± 25.7% | Kd (α1AAR; Apo α1AAR): 0.209 ± 0.288 µM | Nb29-expressing yeast cells bound to α1AAR (α1AAR; Apo, α1AAR 4 nM): 4.848% and 6.304% and 2.077% | Nb29-expressing yeast cells bound to α1AAR (α1AAR; Apo, α1AAR 16 nM): 4.142% and 4.886% and 1.136% | Bmax (α1AAR; α1AAR + 500 μM noradrenaline): 10.9 ± 3.4% | Bmax (α1AAR; α1AAR + 500 μM oxymetazoline): 75.5 ± 13.8% | Bmax (α1AAR; α1AAR + 500 μM phentolamine): 24.8 ± 4.0% | Bmax (α1AAR; α1AAR + 500 μM tamsulosin): 8.90 ± 1.8%

B3: Nb6: nanobody that engages the ICL3 of the inactive-state κ-opioid receptor (antibody, V domains shown)
VH: QVQLQESGGGLVQAGESLRLSCAASGTIFRLYDMGWYRRVSGNQRELVASITSGGSTKYGDSVKGRFTISRDNAKNTVYLQMSSLKPEDTAVYYCNAEYRTGIWEELLDGWGQGTQVTVSS
effect on [3H]prazosin binding (α1AAR-kOR): enhancement | Normalized [3H]prazosin-binding (α1AAR-kOR; with 5 μM Nb6): 182.818% and 184.467% and 175.395%
